# Reference: patent US20090325290A1
# pKd: −log10 of the molar value.
# Legend:
# [1] = target: HLA-DR on the human B-lymphoblastoid cell line LG-2 (human); experiment: cell-based or functional assay
# [2] = target: HLA-DR antigen on the surface of HLA-DR positive cells (tumor cell lines other than PRIESS and LG-2, normal B cells, or cell line not stated) (human); experiment: cell-based or functional assay
# [3] = target: HLA-DR (allotype and form not stated); experiment: not stated (Z. A. Nagy, unpublished)
# Sequence of murine anti-HLA-DR antibody L243 (VH): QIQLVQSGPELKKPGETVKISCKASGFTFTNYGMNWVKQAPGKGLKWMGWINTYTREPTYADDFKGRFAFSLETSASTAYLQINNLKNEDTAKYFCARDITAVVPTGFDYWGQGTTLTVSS
# Sequence of murine anti-HLA-DR antibody L243 (VL): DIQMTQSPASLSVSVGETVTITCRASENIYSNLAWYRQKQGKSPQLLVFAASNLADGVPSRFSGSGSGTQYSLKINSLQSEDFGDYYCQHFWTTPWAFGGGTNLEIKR
substance,measurement,setting,value
murine anti-HLA-DR antibody L243,"% killing of LG-2 cells, 200 nM, 4 h",[1],79%
same,"% killing of ARH-77 cells (DR 12), 200 nM, 4 h",[2],88%
same,"% killing of BJAB cells (DR 12, 13), 200 nM, 4 h",[2],53%
same,"% killing of BONNA-12 cells, 200 nM, 4 h",[2],92%
same,"% killing of DOHH-2 cells (DR 1, 2), 200 nM, 4 h",[2],29%
same,"% killing of EOL-1 cells, 200 nM, 4 h",[2],22%
same,"% killing of GRANTA-519 cells (DR 2, 11), 200 nM, 4 h",[2],83%
same,"% killing of HC-1 cells, 200 nM, 4 h",[2],88%
same,"% killing of HD-MY-Z cells, 200 nM, 4 h",[2],35%
same,"% killing of HDLM-2 cells, 200 nM, 4 h",[2],77%
same,"% killing of KARPAS-299 cells (DR 1, 2), 200 nM, 4 h",[2],78%
same,"% killing of KARPAS-422 cells (DR 2, 4), 200 nM, 4 h",[2],25%
same,"% killing of KM-H2 cells, 200 nM, 4 h",[2],81%
same,"% killing of L1236 cells, 200 nM, 4 h",[2],52%
same,"% killing of L-363 cells, 200 nM, 4 h",[2],6%
same,"% killing of L-428 cells (DR 12), 200 nM, 4 h",[2],82%
same,"% killing of LP-1 cells, 200 nM, 4 h",[2],12%
same,"% killing of MHH-CALL-4 cells (DR 1, 2), 200 nM, 4 h",[2],35%
same,"% killing of MHH-PREB-1 cells, 200 nM, 4 h",[2],3%
same,"% killing of MN-60 cells (DR 10, 13), 200 nM, 4 h",[2],46%
same,"% killing of NALM-1 cells (DR 1, 4), 200 nM, 4 h",[2],44%
same,"% killing of RAJI cells (DR 10, 17), 200 nM, 4 h",[2],69%
same,"% killing of RPMI-8226 cells, 200 nM, 4 h",[2],6%
same,"% killing of SR-786 cells (DR 1, 2), 200 nM, 4 h",[2],3%
same,pKd,[3],8.00
